The test system of series [1] is glutamine synthetase-deficient Escherichia coli. Put plainly: Growth of glutamine synthetase-deficient E. coli transformed with GS mutants in M9 medium containing glufosinate. In kind it is cell-based. To be noted: for growth of transformed GS-deficient E. coli (normal GS enzymatic activity): medium containing 0 mM glufosinate. From the text:
According to the sequences of the nucleic acid molecules provided in Example 4, the nucleic acid sequences encoding rice GS mutants OsA, OsC, OsD, OsE, OsF, OsG, OsH, OsI, OsK, OsP, OST, OsV, and OsY were synthesized using chemical synthesis method. Restriction digestion sites (Pac1 and Sbf1) were introduced at both ends thereof, and after restriction digestion, they were linked under the action of ligase to an expression vector (such as pADV7 vector, whose structure is shown in FIG. 4) that was subjected to the same restriction digestion treatment. Then, glutamine synthetase-deficient Escherichia coli was transformed with the resultant. After verification, positive clones were picked up and inoculated in M9 medium containing different concentrations of glufosinate to grow, and the growth status of defective Escherichia coli was observed.
With wild-type rice GS (its amino acid sequence shown in SEQ ID NO. 1 and its encoding gene shown in SEQ ID NO. 4) as a negative control, the glufosinate resistance for the GS mutant OsA (S59A, wherein the amino acid S at site 59 of the rice GS is mutated into A), OsC (S59C), OsD (S59D), OsE (S59E), OsF (S59F), OsG (S59G), OsH (S59H), OsI (S591), OsK (S59K), OsP (S59P), OsT (S59T), OsV (S59V), OsY (S59Y) was detected.
With reference to the detection method of Experimental Example 1, glufosinate resistance of the rice GS mutant OsGR (S59G and H296R, the amino acid S at site 59 of rice GS is mutated into G and the amino acid H at site 296 is mutated into R), the wheat GS mutant TaGR (S59G and H296R, the amino acid S at site 59 of wheat GS is mutated into G and the amino acid H at site 296 is mutated into R), the soybean GS mutant GmGR (S59G and H296R, the amino acid S at site 59 of soybean GS is mutated into G and the amino acid H at site 296 is mutated into R) provided in Example 2 was verified.
With reference to Experimental example 1, the glufosinate resistance of rice GS mutants OA, OD, OE, OG, OI, OK, OM, OP, OQ, OR, OS, OT, and OV provided in Example 3 was detected according to the following method.
With wild-type rice GS as a negative control, the glufosinate resistance of GS mutants OA (H296A, amino acid H at site 296 of rice GS is mutated into A), OD (H296D), OE (H296E), OG (H296G), OI (H2961), OK (H296K), OM (H296M), OP (H296P), OQ (H296Q), OR (H296R), OS (H296S), OT (H296T), OV (H296V) was detected.

Series [2] addresses rice GS (glutamine synthetase). Description: Enzymatic activity of purified rice GS: kinetic parameters and glufosinate IC50. In kind it is biochemical, rice (Oryza sativa). Conditions: inhibition of rice GS by glufosinate. From the text:
OsC, OsF, OsG, OsH, OsP, and OsY provided in Example 1, OR provided in Example 3, and rice GS mutant OsGR and wheat GS mutant TaGR provided in Example 2 were detected for their enzymatic kinetic parameter, and enzymatic kinetic parameter in the presence of glufosinate, using wild-type rice GS OsGS_WT and wild-type wheat GS TaGS_WT as controls according to the following method.
The nucleic acid sequences encoding the above mutants were each cloned into a prokaryotic expression vector pET32a, and the clone was verified by sequencing.
The mutant enzyme protein was purified with 6His by a standard method, and its concentration was determined with a protein concentration assay kit with Bradford method. The protein was stored in a protein storage solution.
ELIASA (Detielab, HBS-1096A), glufosinate, substrate sodium L-glutamate (CAS: 6106-04-3).
(1) The composition of a reaction solution for determination of enzymatic activity of glutamine synthetase were as follows: 100 mM Tris-HCl (pH 7.5), 10 mM ATP, 20 mM sodium L-glutamate, 30 mM hydroxylamine, 20 mM MgCl2. 100 μl of the reaction solution after mixed thoroughly was preheated at 35° C. for 5 min, and 10 μl of mutant protein solution (protein concentration of 200 μg/ml) was added to start the reaction. After reaction at 35° C. for 30 min, 110 μl of color developing solution (55 g/L FeCl3·6H2O, 20 g/L trichloroacetic acid, 2.1% concentrated hydrochloric acid) was added to terminate the reaction. The absorbance at 540 nm was measured.

The mark [3] stands for this setting: media containing 2 mM, 5 mM, 10 mM, and 20 mM glufosinate.
Setting [4] is: medium containing 10 mM glufosinate.
Setting [5] is: medium with 50 mM/100 mM glufosinate.

B1: GmGS_WT: wild-type soybean glutamine synthetase, SEQ ID NO. 3, control (protein)
chain: MSLLSDLINLNLSDTTEKVIAEYIWIGGSGMDLRSKARTLPGPVSDPSKLPKWNYDGSSTGQAPGEDSEVIIYPQAIFRDPFRRGNNILVICDTYTPAGEPIPTNKRHDAAKVFSHPDVVAEETWYGIEQEYTLLQKDIQWPLGWPVGGFPGPQGPYYCGVGADKAFGRDIVDAHYKACLYAGINISGINGEVMPGQWEFQVGPSVGISAGDEVWAARYILERITEIAGVVVSFDPKPIQGDWNGAGAHTNYSTKSMRNDGGYEVIKTAIEKLGKRHKEHIAAYGEGNERRLTGRHETADINTFLWGVANRGASVRVGRDTEKAGKGYFEDRRPASNMDPYVVTSMIADTTILWKP
modifications: Glycine max
notes: 3, control
For B1, the “growth of transformed E. coli (glufosinate resistance)” value (“growth of transformed E. coli” for short) in series [1] (setting [3]) is “could hardly grow”. In series [1], the “growth of transformed GS-deficient E. coli (normal GS enzymatic activity)” value (“growth … (normal GS enzymatic activity)” below) is on record as “could normally grow”.

B2: GmGR (protein)
chain: MSLLSDLINLNLSDTTEKVIAEYIWIGGSGMDLRSKARTLPGPVSDPSKLPKWNYDGSGTGQAPGEDSEVIIYPQAIFRDPFRRGNNILVICDTYTPAGEPIPTNKRHDAAKVFSHPDVVAEETWYGIEQEYTLLQKDIQWPLGWPVGGFPGPQGPYYCGVGADKAFGRDIVDAHYKACLYAGINISGINGEVMPGQWEFQVGPSVGISAGDEVWAARYILERITEIAGVVVSFDPKPIQGDWNGAGAHTNYSTKSMRNDGGYEVIKTAIEKLGKRHKEHIAAYGEGNERRLTGRRETADINTFLWGVANRGASVRVGRDTEKAGKGYFEDRRPASNMDPYVVTSMIADTTILWKP
modifications: GmGR
On to B2, for which, in series [1] (setting [3]), the “growth of transformed E. coli” value is “significantly grew”. Also, in series [1], the “growth … (normal GS enzymatic activity)” value is recorded as “could normally grow”.

B3: TaGR (protein)
chain: MALLTDLLNLDLTDSTEKIIAEYIWIGGSGMDLRSKARTLPGPVTDPSKLPKWNYDGSGTGQAPGEDSEVILYPQAIFKDPFRKGNNILVMCDCYTPAGVPIPTNKRYNAAKIFSNPDVAKEEPWYGIEQEYTLLQKDINWPLGWPVGGFPGPQGPYYCSIGADKSFGRDIVDSHYKACLFAGVNISGINGEVMPGQWEFQVGPTVGISAGDQVWVARYLLERITEIAGVVVTFDPKPIPGDWNGAGAHTNYSTESMRKDGGFKVIVDAVEKLKLKHKEHIAAYGEGNERRLTGKRETADINTFSWGVANRGASVRVGRETEQNGKGYFEDRRPASNMDPYVVTSMIAETTILWKP
modifications: TaGR
Consider B3, for which the “growth of transformed E. coli” value in series [1] (setting [3]) is “significantly grew”. Moreover, in series [1], the “growth … (normal GS enzymatic activity)” value is recorded as “could normally grow”.

B4: OsGS_WT: wild-type rice glutamine synthetase, SEQ ID NO. 1, negative control (protein, listed as Oryza sativa)
chain: MASLTDLVNLNLSDTTEKIIAEYIWIGGSGMDLRSKARTLSGPVTDPSKLPKWNYDGSSTGQAPGEDSEVILYPQAIFKDPFRKGNNILVMCDCYTPAGEPIPTNKRHNAAKIFSSPEVASEEPWYGIEQEYTLLQKDINWPLGWPVGGFPGPQGPYYCGIGADKSFGRDIVDSHYKACLYAGINISGINGEVMPGQWEFQVGPSVGISAGDQVWVARYILERITEIAGVVVSFDPKPIPGDWNGAGAHTNYSTKSMRNDGGYEIIKSAIEKLKLRHKEHISAYGEGNERRLTGRHETADINTFSWGVANRGASVRVGRETEQNGKGYFEDRRPASNMDPYIVTSMIAETTIIWKP
For B4, in series [2] (read-out: glufosinate resistance parameter IC50), the IC50 was found to be 700 µM. The “growth of transformed E. coli” value in series [1] (media containing 10 mM, 20 mM and 300 mM glufosinate) was “could hardly grow”; in series [1] (setting [4]), “could hardly grow”. In addition, in series [1], the “growth … (normal GS enzymatic activity)” value is given as “could normally grow”.

B5: OsI (protein)
chain: MASLTDLVNLNLSDTTEKIIAEYIWIGGSGMDLRSKARTLSGPVTDPSKLPKWNYDGSITGQAPGEDSEVILYPQAIFKDPFRKGNNILVMCDCYTPAGEPIPTNKRHNAAKIFSSPEVASEEPWYGIEQEYTLLQKDINWPLGWPVGGFPGPQGPYYCGIGADKSFGRDIVDSHYKACLYAGINISGINGEVMPGQWEFQVGPSVGISAGDQVWVARYILERITEIAGVVVSFDPKPIPGDWNGAGAHTNYSTKSMRNDGGYEIIKSAIEKLKLRHKEHISAYGEGNERRLTGRHETADINTFSWGVANRGASVRVGRETEQNGKGYFEDRRPASNMDPYIVTSMIAETTIIWKP
modifications: OsI
In the case of B5, the “growth … (normal GS enzymatic activity)” value in series [1] is reported as “could normally grow”. The “growth of transformed E. coli” value in series [1] (setting [4]) is reported as “significantly superior to that of the negative control”; in series [1] (setting [5]), “significantly grew”.

B6: OsH: rice GS mutant, S59H versus SEQ ID NO. 1 (SEQ ID NO. 13) (protein)
chain: MASLTDLVNLNLSDTTEKIIAEYIWIGGSGMDLRSKARTLSGPVTDPSKLPKWNYDGSHTGQAPGEDSEVILYPQAIFKDPFRKGNNILVMCDCYTPAGEPIPTNKRHNAAKIFSSPEVASEEPWYGIEQEYTLLQKDINWPLGWPVGGFPGPQGPYYCGIGADKSFGRDIVDSHYKACLYAGINISGINGEVMPGQWEFQVGPSVGISAGDQVWVARYILERITEIAGVVVSFDPKPIPGDWNGAGAHTNYSTKSMRNDGGYEIIKSAIEKLKLRHKEHISAYGEGNERRLTGRHETADINTFSWGVANRGASVRVGRETEQNGKGYFEDRRPASNMDPYIVTSMIAETTIIWKP
modifications: OsH
As for B6, in series [2], the “glufosinate resistance parameter IC50” value is “much higher than those of the wild-type controls”. The “growth … (normal GS enzymatic activity)” value in series [1] is recorded as “could normally grow”. In addition, the results for the “growth of transformed E. coli” value in series [1] (setting [4]) and in series [1] (setting [5]) were “significantly superior to that of the negative control” and “significantly grew”, respectively.

B7: OsY: rice GS mutant, S59Y versus SEQ ID NO. 1 (SEQ ID NO. 19) (protein)
chain: MASLTDLVNLNLSDTTEKIIAEYIWIGGSGMDLRSKARTLSGPVTDPSKLPKWNYDGSYTGQAPGEDSEVILYPQAIFKDPFRKGNNILVMCDCYTPAGEPIPTNKRHNAAKIFSSPEVASEEPWYGIEQEYTLLQKDINWPLGWPVGGFPGPQGPYYCGIGADKSFGRDIVDSHYKACLYAGINISGINGEVMPGQWEFQVGPSVGISAGDQVWVARYILERITEIAGVVVSFDPKPIPGDWNGAGAHTNYSTKSMRNDGGYEIIKSAIEKLKLRHKEHISAYGEGNERRLTGRHETADINTFSWGVANRGASVRVGRETEQNGKGYFEDRRPASNMDPYIVTSMIAETTIIWKP
modifications: OsY
B7: the “glufosinate resistance parameter IC50” value in series [2] is “much higher than those of the wild-type controls”. Further, the “growth … (normal GS enzymatic activity)” value in series [1] is on record as “could normally grow”. For the same molecule, the “growth of transformed E. coli” value was “significantly superior to that of the negative control” in series [1] (setting [4]) and “significantly grew” in series [1] (setting [5]).

The values are drawn from US12522842B2, “Glutamine synthetase mutant having glufosinate resistance and application thereof and cultivation method therefor” (GEVOTO LLC, priority 2019, dated 2026).
